Target: the molecule itself
Experiment: SEC; Superose 6 Increase 10/300 in 1X PBS

B1: Pregnancy-Associated Plasma Protein A (PAPP-A), wild type (enzyme, UniProt Q13219 82-1627, looked up)
chain: EARGATEEPSPPSRALYFSGRGEQLRLRADLELPRDAFTLQVWLRAEGGQRSPAVITGLYDKCSYISRDRGWVVGIHTISDQDNKDPRYFFSLKTDRARQVTTINAHRSYLPGQWVYLAATYDGQFMKLYVNGAQVATSGEQVGGIFSPLTQKCKVLMLGGSALNHNYRGYIEHFSLWKVARTQREILSDMETHGAHTALPQLLLQENWDNVKHAWSPMKDGSSPKVEFSNAHGFLLDTSLEPPLCGQTLCDNTEVIASYNQLSSFRQPKVVRYRVVNLYEDDHKNPTVTREQVDFQHHQLAEAFKQYNISWELDVLEVSNSSLRRRLILANCDISKIGDENCDPECNHTLTGHDGGDCRHLRHPAFVKKQHNGVCDMDCNYERFNFDGGECCDPEITNVTQTCFDPDSPHRAYLDVNELKNILKLDGSTHLNIFFAKSSEEELAGVATWPWDKEALMHLGGIVLNPSFYGMPGHTHTMIHEIGHSLGLYHVFRGISEIQSCSDPCMETEPSFETGDLCNDTNPAPKHKSCGDPGPGNDTCGFHSFFNTPYNNFMSYADDDCTDSFTPNQVARMHCYLDLVYQGWQPSRKPAPVALAPQVLGHTTDSVTLEWFPPIDGHFFERELGSACHLCLEGRILVQYASNASSPMPCSPSGHWSPREAEGHPDVEQPCKSSVRTWSPNSAVNPHTVPPACPEPQGCYLELEFLYPLVPESLTIWVTFVSTDWDSSGAVNDIKLLAVSGKNISLGPQNVFCDVPLTIRLWDVGEEVYGIQIYTLDEHLEIDAAMLTSTADTPLCLQCKPLKYKVVRDPPLQMDVASILHLNRKFVDMDLNLGSVYQYWVITISGTEESEPSPAVTYIHGSGYCGDGIIQKDQGEQCDDMNKINGDGCSLFCRQEVSFNCIDEPSRCYFHDGDGVCEEFEQKTSIKDCGVYTPQGFLDQWASNASVSHQDQQCPGWVIIGQPAASQVCRTKVIDLSEGISQHAWYPCTISYPYSQLAQTTFWLRAYFSQPMVAAAVIVHLVTDGTYYGDQKQETISVQLLDTKDQSHDLGLHVLSCRNNPLIIPVVHDLSQPFYHSQAVRVSFSSPLVAISGVALRSFDNFDPVTLSSCQRGETYSPAEQSCVHFACEKTDCPELAVENASLNCSSSDRYHGAQCTVSCRTGYVLQIRRDDELIKSQTGPSVTVTCTEGKWNKQVACEPVDCSIPDHHQVYAASFSCPEGTTFGSQCSFQCRHPAQLKGNNSLLTCMEDGLWSFPEALCELMCLAPPPVPNADLQTARCRENKHKVGSFCKYKCKPGYHVPGSSRKSKKRAFKTQCTQDGSWQEGACVPVTCDPPPPKFHGLYQCTNGFQFNSECRIKCEDSDASQGLGSNVIHCRKDGTWNGSFHVCQEMQGQCSVPNELNSNLKLQCPDGYAIGSECATSCLDHNSESIILPMNVTVRDIPHWLNPTRVERVVCTAGLKWYPHPALIHCVKGCEPFMGDNYCDAINNRAFCNYDGGDCCTSTVKTKKVTPFPMSCDLQGDCACRDPQAQEHSRKDLRGYSHG
notes: PAPP-A, mature form of 1547 amino acids after processing of the pro-peptide. numbers count on: the mature protein; also called FL PAPP-A; dimeric PAPP-A; source: Expi293F, secreted into the culture medium, purified (anti-FLAG, Superose 6 SEC)
- stoichiometry N: 2

— article PMC10613257, “Cryo-EM structure of human PAPP-A2 and mechanism of substrate recognition” (Communications Chemistry, 2023)
